{"source": "patent US20160009782A1", "about": "(Stanford University, published 2016)", "key": {"[1]": {"target": "T1, oligomerized synthetic human Aβ1-42 peptide (oligo-Aβ42) (human, N-terminal biotin (biotinylated peptide used in the cell, neuron and streptavidin pull-down assays))", "T1 construct": "Soluble oligomer mixture, mainly high-n oligomers; About 10-20% stays as monomer or low-n oligomer; Concentrations are monomer equivalents of total peptide; this is probably a misprint, since the peptide used was bought as human Aβ1-42; Both biotinylated and non-biotinylated peptides were obtained; also called Aβ42 oligomers; oligomerized Aβ42", "test": "oligomerized Aβ42 immunoprecipitated with soluble Fc fusion protein, Western blot α-Aβ (4G8) and α-oligo Aβ (OMAB)", "from_the_text": "(§1) Mean±SEM. […] Bottom: bar graphs of average band intensities±SEM from experiments such as that shown in FIG. 10C (n=3; see also FIG. 2H). […] Top, right: Western blot with anti-Aβ antibodies specific for oligomeric forms (OMAB; see FIG. 10D); Bottom, left: quantification of Aβ42 binding. Normalized average band intensities±SEM (n=3).\nThe Aβ signals were quantified as described above."}, "[2]": {"target": "T1, oligomerized synthetic human Aβ1-42 …", "test": "Aβ42 oligomers on transfected HEK293 cells, fluorescence staining", "from_the_text": "(§2) The bound Aβ peptides were visualized with streptavidin-Alexa fluorophore conjugates (Alexa 488, 598 or 647; wavelength choice depending on experiments) (J. Lauren, et al. (2009) “Cellular prion protein mediates impairment of synaptic plasticity by amyloid-beta oligomers.” Nature 457, 1128). […] Fluorescent images were captured with fixed illumination and exposure time using a Nikon 20× objective of numerical aperture 0.75, and then fluorescence intensity was quantified using ImageJ software (NIH). In each experiment, values from control vector transfected cells were used as background, and subtracted from those of experimental cells."}, "[3]": {"target": "T1, oligomerized synthetic human Aβ1-42 …", "test": "synthetic Aβ42 oligomers immunoprecipitated with PirB-Fc proteins, Western blot α-Aβ (6E10), fully reduced"}, "[4]": {"target": "T1, oligomerized synthetic human Aβ1-42 …", "test": "oligo-Aβ42 on transfected HEK293 cells, fluorescence, control-vector cells subtracted", "from_the_text": "Bottom: bar graphs of average band intensities±SEM from experiments such as that shown in FIG. 10C (n=3; see also FIG. 2H). […] Top, right: Western blot with anti-Aβ antibodies specific for oligomeric forms (OMAB; see FIG. 10D); Bottom, left: quantification of Aβ42 binding. Normalized average band intensities±SEM (n=3).\nas §2"}, "[5]": {"target": "T1, oligomerized synthetic human Aβ1-42 …", "test": "Aβ42 oligomers pulled down with purified Fc fusion protein, Western blot for Aβ, normalised band intensity (n=3)", "from_the_text": "as §1, with “Data are mean±SEM (n=5). […] Mean±SEM.” for “Mean±SEM.”"}}, "data": [{"binder": "PirB (D5D6)-Fc, PirB residues 419-643 fused to human IgG1-Fc (Fc fusion, Used as the negative control in the pull-down assays; not shown: human IgG1-Fc from the pFUSE-hIgG1e3-Fc2 vector (InvivoGen); exact limits, linker and any engineered changes are not sta) GLSKKPSLLTHQGHILDPGMTLTLQCFSDINYDRFALHKVGGADIMQHSSQQTDTGFSVANFTLGYVSSSTGGQYRCYGAHNLSSEWSASSEPLDILITGQLPLTPSLSVQPNHTVHSGETVSLLCWSMDSVDTFILSKEGSAQQPLRLKSKSHDQQSQAEFSMSAVTSHLSGTYRCYGAQDSSFYLLSSASAPVELTVSGPIETSTPPPTMSMPLGGLHMYLKA", "values": [{"measurement": "binding result", "setting": "[1]", "value": "no binding"}]}, {"binder": "human LilrB1 expressed in HEK293 cells (receptor, UniProt Q8NHL6 24-650, looked up, whole, on cells; not shown: C-terminal Myc tag) GHLPKPTLWAEPGSVITQGSPVTLRCQGGQETQEYRLYREKKTALWITRIPQELVKKGQFPIPSITWEHAGRYRCYYGSDTAGRSESSDPLELVVTGAYIKPTLSAQPSPVVNSGGNVILQCDSQVAFDGFSLCKEGEDEHPQCLNSQPHARGSSRAIFSVGPVSPSRRWWYRCYAYDSNSPYEWSLPSDLLELLVLGVSKKPSLSVQPGPIVAPEETLTLQCGSDAGYNRFVLYKDGERDFLQLAGAQPQAGLSQANFTLGPVSRSYGGQYRCYGAHNLSSEWSAPSDPLDILIAGQFYDRVSLSVQPGPTVASGENVTLLCQSQGWMQTFLLTKEGAADDPWRLRSTYQSQKYQAEFPMGPVTSAHAGTYRCYGSQSSKPYLLTHPSDPLELVVSGPSGGPSSPTTGPTSTSGPEDQPLTPTGSDPQSGLGRHLGVVIGILVAVILLLLLLLLLFLILRHRRQGKHWTSTQRKADFQHPAGAVGPEPTDRGLQWRSSPAADAQEENLYAAVKHTQPEDGVEMDTRSPHDEDPQAVTYAEVKHSRPRREMASPPSPLSGEFLDTKDRQAEEDRQMDTEAAASEAPQDVTYAQLHSLTLRREATEPPPSQEGPSPAVPSIYATLAIH", "values": [{"measurement": "binding result", "setting": "[2]", "value": "no binding (tested: 200 nM)"}]}, {"binder": "D3D6 (PirB-Fc) (Fc fusion, Fc-mediated homodimer; one chain given, not in the list MOLECULES; also called PirB (D3D6)-Fc; PirB:221-643 (D3D6); not shown: human IgG1-Fc of vector pFUSE-hIgG1e3-Fc2 (InvivoGen) and the cloning-junction residues) GNLQKPTIKAEPGSVITSKRAMTIWCQGNLDAEVYFLHNEKSQKTQSTQTLQEPGNKGKFFIPSVTLQHAGQYRCYCYGSAGWSQPSDTLELVVTGIYEYYEPRLSVLPSPVVTAGGNMTLHCASDFPYDKFILTKEDKKFGNSLDTEHISSSGQYRALFIIGPTTPTHTGAFRCYGYYKNAPQLWSVPSALQQILISGLSKKPSLLTHQGHILDPGMTLTLQCFSDINYDRFALHKVGGADIMQHSSQQTDTGFSVANFTLGYVSSSTGGQYRCYGAHNLSSEWSASSEPLDILITGQLPLTPSLSVQPNHTVHSGETVSLLCWSMDSVDTFILSKEGSAQQPLRLKSKSHDQQSQAEFSMSAVTSHLSGTYRCYGAQDSSFYLLSSASAPVELTVSGPIETSTPPPTMSMPLGGLHMYLKA", "values": [{"measurement": "binding result", "setting": "[3]", "value": "no binding"}]}, {"binder": "human killer immune receptor Kir (3DL1) expressed in HEK293 cells (receptor, UniProt P43629 22-444, looked up, whole, on cells) HMGGQDKPFLSAWPSAVVPRGGHVTLRCHYRHRFNNFMLYKEDRIHIPIFHGRIFQESFNMSPVTTAHAGNYTCRGSHPHSPTGWSAPSNPVVIMVTGNHRKPSLLAHPGPLVKSGERVILQCWSDIMFEHFFLHKEGISKDPSRLVGQIHDGVSKANFSIGPMMLALAGTYRCYGSVTHTPYQLSAPSDPLDIVVTGPYEKPSLSAQPGPKVQAGESVTLSCSSRSSYDMYHLSREGGAHERRLPAVRKVNRTFQADFPLGPATHGGTYRCFGSFRHSPYEWSDPSDPLLVSVTGNPSSSWPSPTEPSSKSGNPRHLHILIGTSVVIILFILLLFFLLHLWCSNKKNAAVMDQEPAGNRTANSEDSDEQDPEEVTYAQLDHCVFTQRKITRPSQRPKTPPTDTILYTELPNAKPRSKVVSCP", "values": [{"measurement": "binding result", "setting": "[4]", "value": "no binding (tested: 200 nM)"}]}, {"binder": "LilrB2 (D3D4)-Fc, LilrB2 residues 219-458 fused to human IgG1-Fc (Fc fusion, not shown: human IgG1-Fc from the pFUSE-hIgG1e3-Fc2 vector (InvivoGen); exact limits, linker and any engineered changes are not sta) PGVSKKPSLSVQPGPVVAPGESLTLQCVSDVGYDRFVLYKEGERDLRQLPGRQPQAGLSQANFTLGPVSRSYGGQYRCYGAHNLSSECSAPSDPLDILITGQIRGTPFISVQPGPTVASGENVTLLCQSWRQFHTFLLTKAGAADAPLRLRSIHEYPKYQAEFPMSPVTSAHAGTYRCYGSLNSDPYLLSHPSEPLELVVSGPSMGSSPPPTGPISTPAGPEDQPLTPTGSDPQSGLGRH", "values": [{"measurement": "binding result", "setting": "[5]", "value": "no binding"}]}]}
